Results published in paper PMC11798926.

Target: myc-tagged SynDIG4 (wild type), Q6MG82
Assay: co-immunoprecipitation (IP: HA, blot: myc), quantified
Settings: chain shown with the change; HEK293T cells; fourth bar chart of panel D (µ2 FLD vs µ2 ALS); parent: est. 100; read off a plot

myc-tagged SynDIG4 (wild type), Q6MG82, sequence (Q6MG82 whole entry): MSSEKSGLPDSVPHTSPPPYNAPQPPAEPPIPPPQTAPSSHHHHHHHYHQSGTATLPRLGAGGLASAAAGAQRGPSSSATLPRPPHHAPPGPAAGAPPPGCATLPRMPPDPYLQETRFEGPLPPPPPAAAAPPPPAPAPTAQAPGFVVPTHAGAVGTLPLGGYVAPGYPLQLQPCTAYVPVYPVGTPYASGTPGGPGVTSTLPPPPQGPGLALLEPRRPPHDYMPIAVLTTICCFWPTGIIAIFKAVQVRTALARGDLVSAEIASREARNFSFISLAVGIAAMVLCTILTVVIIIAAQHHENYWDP

percent of parent: 50 % µ2
B1: HA-tagged μ2 AP subunit, Q96CW1 FLD→ALS (protein)
chain: MIGGLFIYNHKGEVLISRVYRDDIGRNAVDAFRVNVIHARQQVRSPVTNIARTSFFHVKRSNIWLAAVTKQNVNAAMVFEFLYKMCDVMAAYFGKISEENIKNNFVLIYELLDEILDFGYPQNSETGALKTFITQQGIKSQHQTKEEQSQITSQVTGQIGWRREGIKYRRNELALSVLESVNLLMSPQGQVLSAHVSGRVVMKSYLSGMPECKFGMNDKIVIEKQGKGTADETSKSGKQSIAIDDCTFHQCVRLSKFDSERSISFIPPDGEFELMRYRTTKDIILPFRVIPLVREVGRTKLEVKVVIKSNFKPSLLAQKIEVRIPTPLNTSGVQVICMKGKAKYKASENAIVWKIKRMAGMKESQISAEIELLPTNDKKKWARPPISMNFEVPFAPSGLKVRYLKVFEPKLNYSDHDVIKWVRYIGRSGIYETRC
